Assay results published in paper PMC9588060.

How the values were obtained:
[1] = biological target: PD-L1 (coated in the ELISA) (not stated (human or mouse PD-L1 coated)) (UniProt Q9NZQ7); assay: ELISA; human PD-L1
[2] = biological target: PD-L1 (coated in the ELISA) (not stated (human or mouse PD-L1 coated)) (UniProt Q9NZQ7); assay: ELISA; mouse PD-L1; details: Fc fusion
PlGF = PlGF (UniProt P49763); assay: ELISA; details: Fc fusion
hVEGFA165 (human) = hVEGFA165 (human) (UniProt P15692); assay: ELISA; details: Fc fusion
Sequence of hVEGFA165 (human) (P15692 other isoform, or with tags, fused parts or gaps): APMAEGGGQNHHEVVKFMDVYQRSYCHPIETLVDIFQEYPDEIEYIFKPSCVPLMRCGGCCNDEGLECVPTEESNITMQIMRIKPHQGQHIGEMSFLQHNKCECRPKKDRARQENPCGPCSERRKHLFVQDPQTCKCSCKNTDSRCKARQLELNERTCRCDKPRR

Sequence of PD-L1 (coated in the ELISA) (not stated (human or mouse PD-L1 coated)) (Q9NZQ7 19-290): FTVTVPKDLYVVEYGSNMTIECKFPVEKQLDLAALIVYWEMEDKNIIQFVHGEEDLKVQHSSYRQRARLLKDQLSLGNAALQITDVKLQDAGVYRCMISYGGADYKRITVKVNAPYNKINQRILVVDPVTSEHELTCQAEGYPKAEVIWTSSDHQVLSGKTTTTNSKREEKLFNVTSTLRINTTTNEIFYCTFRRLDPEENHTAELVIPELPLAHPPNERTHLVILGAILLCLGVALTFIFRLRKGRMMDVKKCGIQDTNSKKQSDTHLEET
Sequence of Ate-Grab (P17948 whole entry, looked up): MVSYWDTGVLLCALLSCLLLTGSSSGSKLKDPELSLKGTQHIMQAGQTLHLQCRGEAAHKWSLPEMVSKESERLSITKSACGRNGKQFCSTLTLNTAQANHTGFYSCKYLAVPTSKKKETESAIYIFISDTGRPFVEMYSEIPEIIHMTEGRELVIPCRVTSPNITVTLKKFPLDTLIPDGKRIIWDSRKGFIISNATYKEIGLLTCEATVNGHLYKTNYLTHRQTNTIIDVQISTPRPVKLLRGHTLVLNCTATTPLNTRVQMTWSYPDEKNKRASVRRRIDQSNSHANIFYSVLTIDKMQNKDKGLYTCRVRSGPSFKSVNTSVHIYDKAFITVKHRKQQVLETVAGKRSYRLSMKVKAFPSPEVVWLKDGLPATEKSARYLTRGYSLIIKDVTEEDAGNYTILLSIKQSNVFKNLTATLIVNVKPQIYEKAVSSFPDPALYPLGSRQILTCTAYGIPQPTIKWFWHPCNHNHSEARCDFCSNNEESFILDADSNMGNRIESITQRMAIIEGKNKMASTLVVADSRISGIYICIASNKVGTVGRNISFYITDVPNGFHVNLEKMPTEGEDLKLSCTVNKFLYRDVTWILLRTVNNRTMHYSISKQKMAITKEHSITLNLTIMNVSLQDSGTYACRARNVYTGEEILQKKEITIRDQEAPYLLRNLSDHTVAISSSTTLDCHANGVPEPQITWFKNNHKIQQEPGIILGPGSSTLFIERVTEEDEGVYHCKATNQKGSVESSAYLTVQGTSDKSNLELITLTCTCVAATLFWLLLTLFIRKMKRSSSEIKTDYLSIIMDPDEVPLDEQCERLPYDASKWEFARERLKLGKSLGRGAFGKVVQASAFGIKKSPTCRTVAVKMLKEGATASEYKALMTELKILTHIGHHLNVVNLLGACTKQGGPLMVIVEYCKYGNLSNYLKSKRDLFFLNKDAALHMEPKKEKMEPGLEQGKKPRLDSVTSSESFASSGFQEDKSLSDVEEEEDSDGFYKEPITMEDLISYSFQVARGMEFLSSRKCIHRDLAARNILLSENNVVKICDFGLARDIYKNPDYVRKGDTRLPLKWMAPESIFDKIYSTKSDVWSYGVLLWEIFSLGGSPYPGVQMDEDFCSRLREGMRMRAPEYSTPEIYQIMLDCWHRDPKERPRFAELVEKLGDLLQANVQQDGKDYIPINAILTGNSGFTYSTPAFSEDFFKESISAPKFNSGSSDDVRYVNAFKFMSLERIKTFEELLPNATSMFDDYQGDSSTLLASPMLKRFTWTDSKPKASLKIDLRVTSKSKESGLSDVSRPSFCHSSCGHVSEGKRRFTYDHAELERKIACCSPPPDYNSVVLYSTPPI
Sequence of PlGF (P49763 19-221): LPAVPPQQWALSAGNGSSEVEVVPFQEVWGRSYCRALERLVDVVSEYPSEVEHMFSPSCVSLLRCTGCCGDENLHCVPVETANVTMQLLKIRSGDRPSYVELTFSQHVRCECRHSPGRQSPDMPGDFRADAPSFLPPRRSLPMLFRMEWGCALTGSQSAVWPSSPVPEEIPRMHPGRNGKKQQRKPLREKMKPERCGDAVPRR
Sequence of VEGF-Grab (P17948 whole entry, looked up): as the sequence (P17948 whole entry, looked up) above

## Atezolizumab
[1]
  EC50: 0.107 nM

## Ate-Grab (from UniProt P17948)
[2]
  EC50: 0.374 nM
[1]; Fc fusion
  EC50: 0.222 nM
PlGF
  EC50: 0.929 nM
hVEGFA165 (human)
  EC50: 0.652 nM

## VEGF-Grab (from UniProt P17948)
PlGF
  EC50: 0.619 nM
hVEGFA165 (human)
  EC50: 0.686 nM
